Assay results from paper PMC5854672, “Solution structure of extracellular loop of human β4 subunit of BK channel and its biological implication on ChTX sensitivity” (Scientific Reports, 2018).

Biological target: mSlo1 channel (BKα subunit of mouse, alone) (mouse) (UniProt Q08460)
Sequence (Q08460 whole entry): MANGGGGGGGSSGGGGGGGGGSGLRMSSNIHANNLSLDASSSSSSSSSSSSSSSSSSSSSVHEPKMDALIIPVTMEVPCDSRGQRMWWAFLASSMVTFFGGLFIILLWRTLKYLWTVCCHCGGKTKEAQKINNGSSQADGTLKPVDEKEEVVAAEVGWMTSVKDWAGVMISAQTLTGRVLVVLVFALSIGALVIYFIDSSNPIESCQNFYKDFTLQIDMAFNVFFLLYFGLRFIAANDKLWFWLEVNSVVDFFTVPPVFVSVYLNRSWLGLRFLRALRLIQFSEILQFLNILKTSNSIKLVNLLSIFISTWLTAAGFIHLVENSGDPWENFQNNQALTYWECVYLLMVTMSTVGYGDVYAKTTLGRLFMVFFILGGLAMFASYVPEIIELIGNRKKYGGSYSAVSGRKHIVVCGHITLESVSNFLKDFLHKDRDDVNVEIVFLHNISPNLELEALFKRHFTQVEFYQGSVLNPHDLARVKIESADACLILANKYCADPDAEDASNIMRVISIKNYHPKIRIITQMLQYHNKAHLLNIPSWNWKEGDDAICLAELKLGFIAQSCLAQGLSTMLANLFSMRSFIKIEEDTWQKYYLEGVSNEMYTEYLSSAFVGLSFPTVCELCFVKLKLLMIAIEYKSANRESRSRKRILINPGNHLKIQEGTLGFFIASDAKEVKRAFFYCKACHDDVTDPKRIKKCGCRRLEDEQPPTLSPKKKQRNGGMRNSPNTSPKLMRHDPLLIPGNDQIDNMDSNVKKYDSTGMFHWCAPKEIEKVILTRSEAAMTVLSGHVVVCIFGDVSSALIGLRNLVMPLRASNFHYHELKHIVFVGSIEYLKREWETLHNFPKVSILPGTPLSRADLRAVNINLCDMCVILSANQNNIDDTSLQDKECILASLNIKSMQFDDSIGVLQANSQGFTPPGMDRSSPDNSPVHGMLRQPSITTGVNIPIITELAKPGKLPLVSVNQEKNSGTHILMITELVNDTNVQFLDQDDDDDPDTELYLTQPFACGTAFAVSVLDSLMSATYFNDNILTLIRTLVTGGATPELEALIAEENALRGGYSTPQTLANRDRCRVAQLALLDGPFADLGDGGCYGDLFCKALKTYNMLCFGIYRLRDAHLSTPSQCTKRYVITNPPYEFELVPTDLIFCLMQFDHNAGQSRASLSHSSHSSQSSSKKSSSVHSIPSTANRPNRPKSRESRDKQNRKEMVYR

B1: human β4 subunit of BK channel, full length (natural protein)
chain: MAKLRVAYEYTEAEDKSIRLGLFLIISGVVSLFIFGFCWLSPALQDLQATEANCTVLSVQQIGEVFECTFTCGADCRGTSQYPCVQVYVNNSESNSRALLHSDEHQLLTNPKCSYIPPCKRENQKNLESVMNWQQYWKDEIGSQPFTCYFNQHQRPDDVLLHRTHDEIVLLHCFLWPLVTFVVGVLIVVLTICAKSLAVKAEAMKKRKFS
In the case of B1, the thermodynamic double-mutant cycle on V1/2 of G-V curves (inside-out patches, 10 μM Ca2+): mSlo1(E264A) against β4(N123A), ΔΔV is reported as -42.4 mV.
